Series [1] has as its target E. coli FtsZ, purified (GTP-polymerized in the assays) (E. coli) (UniProt P0A9A6). Nature of the series: co-sedimentation; co-sedimentation with GTP-polymerized FtsZ carried out similarly to Fig 2 panel A; data fitted with Hill model y = x^n/(Kd+x^n).
Series [2] concerns the molecule itself. Nature of the series: 90° angle light scattering; FtsZ (12 μM) alone or with MBP-ABDOM (12 μM) or MBP in 50 mM PIPES pH 6.0, 1 mM EDTA, 5 mM MgCl2, 30 °C; polymerization induced by 1 mM GTP.

As to “MBP-ABDOM (ABDOM of MscS with N-terminally fused maltose binding protein) (from UniProt P0C0S1 175-265) (domain or fragment)”, the Kd – broadly, the free concentration of one partner at which half of the binding sites on the other are occupied at equilibrium, for simple one-to-one binding – in series [1] is 5.3 µM.

For “MBP-ABDOM-K258A/R259A (from UniProt P0C0S1 175-265) (domain or fragment)”, the dissociation constant Kd in series [1] came to 14.6 µM.

B1: E. coli FtsZ, purified (GTP-polymerized in the assays) (natural protein, UniProt P0A9A6 1-383, looked up)
chain: MFEPMELTNDAVIKVIGVGGGGGNAVEHMVRERIEGVEFFAVNTDAQALRKTAVGQTIQIGSGITKGLGAGANPEVGRNAADEDRDALRAALEGADMVFIAAGMGGGTGTGAAPVVAEVAKDLGILTVAVVTKPFNFEGKKRMAFAEQGITELSKHVDSLITIPNDKLLKVLGRGISLLDAFGAANDVLKGAVQGIAELITRPGLMNVDFADVRTVMSEMGYAMMGSGVASGEDRAEEAAEMAISSPLLEDIDLSGARGVLVNITAGFDLRLDEFETVGNTIRAFASDNATVVIGTSLDPDMNDELRVTVVATGIGMDKRPEITLVTNKQVQQPVMDRYQQHGMAPLTQEQKPVAKVVNDNAPQTAKEPDYLDIPAFLRKQAD
notes: cell division protein FtsZ, E. coli, from pET11-ftsZ (gift of H. P. Erickson); also called polymerized FtsZ; assembled FtsZ; source: E. coli BL21(DE3) carrying pET11-FtsZ, purified by GTP-induced precipitation (four times)
For B1, the binding result in series [2] was “binds”.
